# B1: CDC25A (parent)
# chain: TVAGKHQDLKYISPEIMASVLNGK
# B2: ZNF207 (parent)
# chain: CHICHKKLYTGPGLAIHCMQVHKE
# Variants of: B1
# Test: protein stability index of a GFP-peptide fusion (GPS, HEK-293T) (PSI 1-6); higher = more stable
# Conditions: c terminus: a fixed tail appended
# 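Also: lentivirally expressed fusions sorted by FACS into six bins by GFP to DsRed ratio, PSI derived from sequencing read proportions per bin multiplied by bin number.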
row,Variant,protein stability index
1,TVAGKHQDLKYQSPEIMASVLNGK [I12Q],4.04
2,TVAGKHQDLKYYSPEIMASVLNGK [I12Y],3.37
3,TVAGKHQDLKYLSPEIMASVLNGK [I12L],3.16
4,TVAGKHQDLKYISPEIMASVLNNK [G23N],3.9
5,TVAGKHQDLKYISPEIMASVLNCK [G23C],2.63
6,TVAGKHQDLKYISPEIMASVLNLK [G23L],2.63
7,TVAGKHQDLKYISPEIMASVLNMK [G23M],2.46
8,TVAGKHQDLKYISPEIMASVLNVK [G23V],2.61
9,TVAGKHQDLKYISPEIMASVLNRK [G23R],3.37
10,TVAGKHVDLKYISPEIMASVLNGK [Q7V],3.17
11,TVAGKHKDLKYISPEIMASVLNGK [Q7K],2.6
12,TVAGKHIDLKYISPEIMASVLNGK [Q7I],2.37
13,TVAGKHMDLKYISPEIMASVLNGK [Q7M],2.7
14,TVAGKHNDLKYISPEIMASVLNGK [Q7N],2.46
15,TVAGKHQDIKYISPEIMASVLNGK [L9I],3.25
16,TVAGKHQDQKYISPEIMASVLNGK [L9Q],3.71
17,TVAGKHQDVKYISPEIMASVLNGK [L9V],3.27
18,TVAGKHQDFKYISPEIMASVLNGK [L9F],3.1
19,TVAGKHQDMKYISPEIMASVLNGK [L9M],3.29
20,TVAGKHQDYKYISPEIMASVLNGK [L9Y],3.08
21,TVAGKHQDCKYISPEIMASVLNGK [L9C],3.13

row,Variant,protein stability index
1,TVAGNHQDLKYISPEIMASVLNGK [K5N],3.07
2,TVAGSHQDLKYISPEIMASVLNGK [K5S],3.5
3,TVAGGHQDLKYISPEIMASVLNGK [K5G],3.6
4,TVAGRHQDLKYISPEIMASVLNGK [K5R],3.2
5,TVAGEHQDLKYISPEIMASVLNGK [K5E],3.5
6,TVAGDHQDLKYISPEIMASVLNGK [K5D],3.56
7,TVAGHHQDLKYISPEIMASVLNGK [K5H],3.54
8,TVAGWHQDLKYISPEIMASVLNGK [K5W],2.75
9,TVAGYHQDLKYISPEIMASVLNGK [K5Y],3.03
10,TVAGKHQDLKYISQEIMASVLNGK [P14Q],2.87
11,TVAGKHQDLKYISCEIMASVLNGK [P14C],1.85
12,TVAGKHQDLKYISFEIMASVLNGK [P14F],2.24
13,TVAGKHQDLKYISSEIMASVLNGK [P14S],2.55
14,KVAGKHQDLKYISPEIMASVLNGK [T1K],3.17
15,GVAGKHQDLKYISPEIMASVLNGK [T1G],3.06
16,RVAGKHQDLKYISPEIMASVLNGK [T1R],2.52
17,SVAGKHQDLKYISPEIMASVLNGK [T1S],3.14
18,VVAGKHQDLKYISPEIMASVLNGK [T1V],2.52
19,IVAGKHQDLKYISPEIMASVLNGK [T1I],2.6
20,TVAHKHQDLKYISPEIMASVLNGK [G4H],3.35
21,TVAFKHQDLKYISPEIMASVLNGK [G4F],2.38

row,Variant,protein stability index
1,TVACKHQDLKYISPEIMASVLNGK [G4C],2.82
2,TVAAKHQDLKYISPEIMASVLNGK [G4A],2.82
3,TVAPKHQDLKYISPEIMASVLNGK [G4P],3.44
4,TVATKHQDLKYISPEIMASVLNGK [G4T],3.11
5,TVARKHQDLKYISPEIMASVLNGK [G4R],3.5
6,TVAEKHQDLKYISPEIMASVLNGK [G4E],3.78
7,TVALKHQDLKYISPEIMASVLNGK [G4L],3.16
8,TVAGKHQDLKYIKPEIMASVLNGK [S13K],3.16
9,TVAGKHQDLKYIVPEIMASVLNGK [S13V],2.65
10,TVAGKHQDLKYIWPEIMASVLNGK [S13W],2.12
11,TVAGKHQDLKYIQPEIMASVLNGK [S13Q],3.53
12,TVAGKHQDLKYIHPEIMASVLNGK [S13H],2.71
13,TVAGKHQDLKYIRPEIMASVLNGK [S13R],3.21
14,TVIGKHQDLKYISPEIMASVLNGK [A3I],2.61
15,TVDGKHQDLKYISPEIMASVLNGK [A3D],3.74
16,TVMGKHQDLKYISPEIMASVLNGK [A3M],2.82
17,TVPGKHQDLKYISPEIMASVLNGK [A3P],3.52
18,TVWGKHQDLKYISPEIMASVLNGK [A3W],2.16
19,TVRGKHQDLKYISPEIMASVLNGK [A3R],2.85
20,TVSGKHQDLKYISPEIMASVLNGK [A3S],2.93

# Variants of: B2
# Test: as above
# Conditions: c terminus: a fixed tail appended
row,Variant,protein stability index
1,THICHKKLYTGPGLAIHCMQVHKE [C1T],1.94
2,SHICHKKLYTGPGLAIHCMQVHKE [C1S],2.58
3,RHICHKKLYTGPGLAIHCMQVHKE [C1R],3
4,LHICHKKLYTGPGLAIHCMQVHKE [C1L],1.94
5,QHICHKKLYTGPGLAIHCMQVHKE [C1Q],1.8
6,YHICHKKLYTGPGLAIHCMQVHKE [C1Y],2.84
7,IHICHKKLYTGPGLAIHCMQVHKE [C1I],1.52
8,HHICHKKLYTGPGLAIHCMQVHKE [C1H],1.83
9,DHICHKKLYTGPGLAIHCMQVHKE [C1D],2.78
10,AHICHKKLYTGPGLAIHCMQVHKE [C1A],2.02
11,NHICHKKLYTGPGLAIHCMQVHKE [C1N],2.24
12,PHICHKKLYTGPGLAIHCMQVHKE [C1P],2.69
13,GHICHKKLYTGPGLAIHCMQVHKE [C1G],2.07
14,MHICHKKLYTGPGLAIHCMQVHKE [C1M],2.03
15,EHICHKKLYTGPGLAIHCMQVHKE [C1E],2.76
16,KHICHKKLYTGPGLAIHCMQVHKE [C1K],2.16

row,Variant,protein stability index
1,CPICHKKLYTGPGLAIHCMQVHKE [H2P],2.9
2,CRICHKKLYTGPGLAIHCMQVHKE [H2R],2.59
3,CTICHKKLYTGPGLAIHCMQVHKE [H2T],2.87
4,CEICHKKLYTGPGLAIHCMQVHKE [H2E],3.07
5,CAICHKKLYTGPGLAIHCMQVHKE [H2A],2.71
6,CGICHKKLYTGPGLAIHCMQVHKE [H2G],3.31
7,CIICHKKLYTGPGLAIHCMQVHKE [H2I],2.46
8,CMICHKKLYTGPGLAIHCMQVHKE [H2M],2.49
9,CQICHKKLYTGPGLAIHCMQVHKE [H2Q],3.4
10,CCICHKKLYTGPGLAIHCMQVHKE [H2C],2.45
11,CDICHKKLYTGPGLAIHCMQVHKE [H2D],4.28
12,CNICHKKLYTGPGLAIHCMQVHKE [H2N],3.65
13,CKICHKKLYTGPGLAIHCMQVHKE [H2K],2.91
14,CSICHKKLYTGPGLAIHCMQVHKE [H2S],2.73
15,CFICHKKLYTGPGLAIHCMQVHKE [H2F],2.76
16,CLICHKKLYTGPGLAIHCMQVHKE [H2L],2.78

# Reference: the supplement of paper PMC10567573
